Bridges are numbered along the chain shown (N, C = ends). Where no end group is shown, it is not given here. Side-chain parts run from the residue outwards. [ ]: non-standard residue; d: D form. tBuAla = CC(C)(C)C[C@H](N)C(=O)O; Tle = CC(C)(C)[C@H](N)C(=O)O; linker = not defined here; Nle = CCCC[C@H](N)C(=O)O; siRNA = not defined here
Tests used:
[1] = target: T1, cyno SORT1 (76-753)-His (cyno, UniProt A0A2K5VHG2 74-751); experiment: SPR (Biacore 8K), SORT1 on CM5 chip, siRNA-peptide conjugate as analyte, 1:1 model
T1 construct: range 76-753; Amine-coupled to CM5 chip for SPR
T1 sequence: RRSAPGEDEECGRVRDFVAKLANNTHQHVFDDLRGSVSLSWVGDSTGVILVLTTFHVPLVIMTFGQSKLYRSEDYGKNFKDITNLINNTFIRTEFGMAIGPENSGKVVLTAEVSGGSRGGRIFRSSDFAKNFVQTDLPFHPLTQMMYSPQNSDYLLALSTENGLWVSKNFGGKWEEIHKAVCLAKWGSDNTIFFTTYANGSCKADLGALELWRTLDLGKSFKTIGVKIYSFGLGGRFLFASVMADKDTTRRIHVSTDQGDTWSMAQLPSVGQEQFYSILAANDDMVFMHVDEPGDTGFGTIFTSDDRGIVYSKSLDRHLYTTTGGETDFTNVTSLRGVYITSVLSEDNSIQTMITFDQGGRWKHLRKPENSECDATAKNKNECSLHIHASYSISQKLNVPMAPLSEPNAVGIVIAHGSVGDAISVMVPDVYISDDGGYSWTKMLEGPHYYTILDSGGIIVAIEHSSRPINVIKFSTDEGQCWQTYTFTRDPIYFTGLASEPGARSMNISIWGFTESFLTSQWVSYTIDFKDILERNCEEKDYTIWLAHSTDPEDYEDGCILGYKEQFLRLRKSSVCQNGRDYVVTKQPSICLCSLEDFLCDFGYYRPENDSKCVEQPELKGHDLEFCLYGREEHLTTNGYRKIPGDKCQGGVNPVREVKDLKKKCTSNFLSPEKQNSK
Description: (§1) SPR analysis was performed on Series S CM5 chips (Cytiva) using a Biacore 8K instrument (Cytiva). Sensorgrams were double-referenced by subtracting the response on both a reference flow cell and a blank sample. Human SORT1 (78-755)-His (Acrobiosystems), human SORT1 (78-755)-His(GenScript), mouse SORT1 (76-753)-His (R&D Systems), rat SORT1 (76-752)-His (GenScript), and cyno SORT1 (76-753)-His (GenScript) were diluted to 20-60 μg/mL in 10 mM sodium acetate pH 4.5 buffer and immobilized onto Series S CM5 chips using amine coupling at a flow rate of 10 μL/min for 45-100 s.
(§2) Ten start-up cycles and a blank cycle preceded each analysis run. The runs were performed by sequential injections of analyte (0-20 nM, 3-fold serial dilutions) with a 90 s association and 900 s dissociation at a flow rate of 30 μL/min, followed by two regeneration cycles with 2 M MgCl2 for 90 s at a flow rate of 10 μL/min. […] Five start-up cycles and a blank cycle preceded each analysis run. The runs were performed by sequential injections of analyte (0-25 nM) with a 150 seconds (s) association and 300 s dissociation at a flow rate of 30 μL/min, followed by a regeneration with 2 M MgCl₂ for 200 s at a flow rate of 10 μL/min. The kinetic rate constants (kₐ and kd) and the equilibrium binding constant (Kd) were calculated using a 1:1 kinetic binding model on the Biacore Insight Evaluation Software (Cytiva).
(§3) SPR analysis was performed on Series S CM5 chips (Cytiva) using a Biacore 8K instrument (Cytiva). Sensorgrams were double-referenced by subtracting the response on both a reference flow cell and a blank sample. The SPR analysis was conducted using four different SORT1 species: Human SORT1, Mouse SORT1, Rat SORT1, and Cyno SORT1. The samples were prepared according to the general procedure described above herein. The kinetic rate constants (ka and […]) and the equilibrium binding constant (Kd) were calculated using a 1:1 kinetic binding model on the Biacore Insight Evaluation Software (Cytiva).

[2] = target: T2, mouse SORT1 (76-753)-His (mouse, UniProt Q6PHU5 76-753); experiment: as above
T2 construct: range 76-753; Amine-coupled to CM5 chip for SPR
T2 sequence (looked up): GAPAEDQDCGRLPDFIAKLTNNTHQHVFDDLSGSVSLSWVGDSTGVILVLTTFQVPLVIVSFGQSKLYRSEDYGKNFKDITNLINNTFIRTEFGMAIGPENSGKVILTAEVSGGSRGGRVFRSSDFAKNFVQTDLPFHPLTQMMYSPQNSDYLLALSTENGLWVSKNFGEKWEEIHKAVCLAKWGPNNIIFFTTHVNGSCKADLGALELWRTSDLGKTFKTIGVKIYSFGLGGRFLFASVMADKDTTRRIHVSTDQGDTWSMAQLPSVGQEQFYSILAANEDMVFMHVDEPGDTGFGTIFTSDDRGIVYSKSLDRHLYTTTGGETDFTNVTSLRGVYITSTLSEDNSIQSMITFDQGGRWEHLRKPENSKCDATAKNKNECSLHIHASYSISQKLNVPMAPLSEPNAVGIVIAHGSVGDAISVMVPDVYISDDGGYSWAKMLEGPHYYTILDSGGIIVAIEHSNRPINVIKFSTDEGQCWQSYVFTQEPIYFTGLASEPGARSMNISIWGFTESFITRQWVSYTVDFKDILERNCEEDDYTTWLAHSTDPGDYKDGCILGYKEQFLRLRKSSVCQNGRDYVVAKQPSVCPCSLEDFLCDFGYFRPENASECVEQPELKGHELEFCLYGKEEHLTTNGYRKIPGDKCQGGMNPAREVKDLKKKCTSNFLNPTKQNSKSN
Description: as §1, §2, §3

Kd [1]: 191 nM
Kd [2]: 178 nM
B1: SORT1 peptide 3 conjugate (peptide)
peptide: RWCENK([linker-siRNA])R[Nle]FTCRQ[Tle][tBuAla]
modifications: disulfide 3-11 (inferred); not fully specified; printed as RWCENKR(Nle)FTCRQ(B13)(F02); reading uncertain
notes: also called SORT1 peptide 3 siRNA conjugate
